Patent US20190309033A1 (Eli Lilly, published 2019)

T1: human GFRAL (NCBI Ref. Sequence No. NP_997293.2) expressed on HEK293 cells with human RET51 (human, UniProt Q6UXV0 19-394)
T1 sequence (looked up): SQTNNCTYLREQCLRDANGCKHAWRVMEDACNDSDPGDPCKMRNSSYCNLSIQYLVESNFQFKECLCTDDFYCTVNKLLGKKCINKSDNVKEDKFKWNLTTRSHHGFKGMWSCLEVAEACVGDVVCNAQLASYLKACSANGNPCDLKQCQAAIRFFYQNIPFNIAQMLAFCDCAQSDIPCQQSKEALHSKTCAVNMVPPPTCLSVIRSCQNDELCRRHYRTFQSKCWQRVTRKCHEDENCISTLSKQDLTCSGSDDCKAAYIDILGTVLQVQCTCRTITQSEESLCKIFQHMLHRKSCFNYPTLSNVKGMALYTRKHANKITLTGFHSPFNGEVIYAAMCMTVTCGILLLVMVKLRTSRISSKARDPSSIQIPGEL

T2: HIS-tagged human GFRAL ECD (human, UniProt Q6UXV0 20-338)
T2 construct: Produced in CHOK1 cell derivatives; also called Human GFRAL ECD (D1-D2-D3-ECD) Receptor; soluble human GFRAL extracellular domain
T2 sequence: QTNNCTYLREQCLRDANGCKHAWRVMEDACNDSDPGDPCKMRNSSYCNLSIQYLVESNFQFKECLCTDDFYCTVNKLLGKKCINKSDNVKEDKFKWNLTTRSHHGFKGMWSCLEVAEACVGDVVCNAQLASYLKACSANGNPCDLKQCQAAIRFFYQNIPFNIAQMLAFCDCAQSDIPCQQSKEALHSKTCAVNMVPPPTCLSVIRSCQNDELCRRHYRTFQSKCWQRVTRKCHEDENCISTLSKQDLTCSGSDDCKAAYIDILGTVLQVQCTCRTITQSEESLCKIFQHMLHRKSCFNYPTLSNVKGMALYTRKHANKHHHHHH


Legend:
[1] = target: T1, human GFRAL (NCBI Ref. Sequence No. …); assay: cell-based or functional assay
[2] = target: T2, HIS-tagged human GFRAL ECD; assay: SPR, Biacore T200, 25 C; compound captured by immobilized anti-GDF15 antibody, GFRAL ECD as analyte; 1:1 fit
Experimental: To measure human GDF15 (des-ARN SEQ ID NO:1) or Compound 2 binding to human GFRAL ECD, a Biacore T200 Instrument is used to measure the binding kinetics of human GDF15 homodimer (des-ARN SEQ ID NO:1) and Compound 2 to the GFRAL ECD. Measurements are performed at 25° C. Samples are dissolved in HBS-EP+, pH 7.4 (GE Healthcare; 10 mM HEPES pH 7.4+150 mM NaCl+3 mM EDTA+0.05% surfactant P20). Goat […] GDF15 antibody (R&D) is immobilized on the flow cells of a CM5 sensor chip using amine coupling chemistry. GDF15 samples are prepared at 25 μg/ml by dilution into running buffer.
Human GFRAL ECD samples are prepared at final concentrations of 1000, 500, 250, 125, 62.5, 31.3, 15.6, 7.8, 3.9, 2.0 and 0 (blank) nM by dilution into running buffer. The SPR experiment includes the following steps: (1) capturing GDF15 samples on separate flow cells (Fc2, Fc3 and Fc4), (2) injecting 200 μl of human GFRAL ECD over all flow cells at […], (3) dissociating for 600 sec, (4) regenerating chip surfaces with a 10 μl (30 sec) injection of glycine, pH 1.5, at […], and (5) equilibrating chip surfaces with a 10 μl (30 sec) injection of HBS-EP+ at […]. Each concentration of human GFRAL ECD is injected in duplicate.
Data are processed using standard double-referencing and fit to a 1:1 binding model using Biacore T200 Evaluation Software to determine the association rate (kₒₙ, M⁻¹s⁻¹), dissociation rate (koff, s⁻¹) and maximum response (Rmax; response units (RU)). The equilibrium dissociation constant (KD) is calculated from the relationship KD=koff/kₒₙ (M).

EC50 of ERK1/2 phosphorylation (AlphaLISA pERK1/2) in HEK293 cells expressing human GFRAL and human RET51 [1]	Kd [2]	koff [2]	kon [2]	Binder
27.9 pM	–	–	–	Mature human GDF15 (homodimer of two compounds including SEQ ID NO: 1) (ligand) ARNGDHCPLGPGRCCRLHTVRASLEDLGWADWVLSPREVQVTMCIGACPSQFRAANMHAQIKTSLHRLKPDTVPAPCCVPASYNPMVLIQKTDTGVSLQTYDDLLAKDCHCI
86.2 pM	8.3 nM	0.00871 s⁻¹	1.05e+06 M⁻¹ s⁻¹	Compound 2 (homodimer of two compounds including SEQ ID NO: 2) (Fc fusion, Homodimer linked by at least one interchain disulfide bond between the GDF15 portions; also called homodimer of the Fc-GDF15 Compound 1) EAAGGPSVFLFPPKPKDTLMISRTPEVTCVVVDVSQEDPEVQFNWYVDGVEVHNAKTKPREEQFNSTYRVVSVLTVLHQDWLNGKEYKCKVSNKGLPSSIEKTISKAKGQPREPQVYTLPPSQEEMTKNQVSLTCLVKGFYPSDIAVEWESNGQPENNYKTTPPVLDSDGSFQLESRLTVDKSRWQEGNVFSCSVMHEALHNHYTQKSLSLSLGGGGGAPAPAPAPAPAPAPAPAPAPGGGGGDHCPLGPGRCCRLHTVRASLEDLGWADWVLSPREVQVTMCIGACPSQFRAANMHAQIKTSLHRLKPDTVPAPCCVPASYNPMVLIQKTDTGVSLQTYDDLLAKDCHCI
